# Assay results as given in US20240301071A1 (Alector, published 2024).
# Legend:
# [1] = target: human SIRPA Q281A (V5-tagged library clone on HEK-293T cells) (human, UniProt P78324 31-504); assay: flow cytometry of Fab on HEK-293T cells expressing the mutant, normalised to wild-type SIRPA
# Description: (§1) Epitope mapping of anti-SIRPA antibodies was performed using an alanine-scanning library created by shotgun mutagenesis of the human SIRPA cDNA sequence. […] Each of the residues representing the SIRPA extracellular domain (amino acids 31-374 of SEQ ID NO:1) was mutated, most to alanine, while alanine codons were mutated to serine.
# (§2) The SIRPA mutant library clones, arrayed in a 384-well microplate, were transfected individually into HEK-293T cells and allowed to express for 22 hours. Antibodies were digested to generate Fabs, after which cells were incubated with Fabs diluted in 10% normal goat serum (NGS) (Sigma-Aldrich, St. Louis, MO). Prior to library screening, primary Fab concentrations were determined using an independent immunofluorescence titration curve against cells expressing wild type SIRPA to ensure that signals were within the linear range of detection. Fabs were detected using 7.5 μg/ml AlexaFluor488-conjugated secondary antibody (Jackson ImmunoResearch Laboratories, Westgrove, PA) in 10% NGS. Cells were washed twice with PBS and resuspended in Cellstripper (Cellgro, Manassas, VA) with 0.1% BSA (Sigma-Aldrich, St. Louis, MO). In some cases, higher stringency conditions were used, including increased pH, increased temperature, and increased dissociation time. Mean cellular fluorescence was detected using the Intellicyt high throughput flow cytometer (HTFC, Intellicyt, Albuquerque, NM). Fab reactivities against each mutant clone were calculated relative to wild-type SIRPA protein reactivity by subtracting the signal from mock-transfected controls, and normalizing to the signal from wild-type SIRPA transfected controls.
# [2] = target: human SIRPA R282A (V5-tagged library clone on HEK-293T cells) (human, UniProt P78324 31-504); assay: as above
# Description: as §1, §2
# [3] = target: human SIRPA Q284A (V5-tagged library clone on HEK-293T cells) (human, UniProt P78324 31-504); assay: as above
# Description: as §1, §2
# [4] = target: human SIRPA L285A (V5-tagged library clone on HEK-293T cells) (human, UniProt P78324 31-504); assay: as above
# Description: as §1, §2
# [5] = target: human SIRPA W287A (V5-tagged library clone on HEK-293T cells) (human, UniProt P78324 31-504); assay: as above
# Description: as §1, §2
# [6] = target: human SIRPA R295A (V5-tagged library clone on HEK-293T cells) (human, UniProt P78324 31-504); assay: as above
# Description: as §1, §2
# [7] = target: human SIRPA E297A (V5-tagged library clone on HEK-293T cells) (human, UniProt P78324 31-504); assay: as above
# Description: as §1, §2
# [8] = target: human SIRPA V302A (V5-tagged library clone on HEK-293T cells) (human, UniProt P78324 31-504); assay: as above
# Description: as §1, §2
# [9] = target: human SIRPA W315A (V5-tagged library clone on HEK-293T cells) (human, UniProt P78324 31-504); assay: as above
# Description: as §1, §2
# [10] = target: human SIRPA G337A (V5-tagged library clone on HEK-293T cells) (human, UniProt P78324 31-504); assay: as above
# Description: as §1, §2
# [11] = target: T1, human SIRPA on human macrophages (primary monocyte-derived macrophages; U937 line) (human, UniProt P78324 31-504); assay: cell-based or functional assay
# [12] = target: T1, human SIRPA on human macrophages …; assay: cell-based or functional assay; remark: listed apart in the source
# [13] = target: T2, human SIRPA v1 on BWZ cells (BWZ-huSIRPA) (human, UniProt P78324 31-504); assay: flow cytometry titration on BWZ cells overexpressing huSIRPA, 4 C
# T2 construct: also called BWZ cells overexpressing human SIRPA; BWZ-huSIRPA v1 cells
# Description: Receptor bound antibodies were detected by staining cells with anti-mouse IgG Fc APC or anti-human IgG PE secondary antibody. Serial dilutions of the monoclonal antibodies were added to 10⁵ BWZ cells overexpressing huSIRPA (BWZ-huSIRPA) and allowed to achieve binding equilibrium at 4° C. After addition of fluorescently labeled secondary antibody and brief washing steps, mean fluorescent intensity (MFI) values as a function of titrated antibody concentration was recorded via FACS analysis. Curves were fit using nonlinear regression analysis with Graphpad Prism 6 software.
# [14] = target: T2, human SIRPA v1 on BWZ cells …; assay: flow cytometry competition on BWZ-huSIRPA v1 cells, competitor: fluorophore-labelled reference m3F9
# Description: IC50 values provide another comparison of relative affinity.
# [15] = target: T3, histidine-tagged human SIRPA (Sino Biological) (human, UniProt P78324 31-370); assay: BLI (Octet RED96), antibody captured on anti-human IgG Fc sensor, His-tagged SIRPA in solution, 1:1 model
# T3 construct: bought, soluble; also called histidine-tagged huSIRPA isoform 1; soluble SIRPA antigen; not shown: histidine tag
# Description: Affinity measurements for the anti-SIRPA antibodies were performed as follows. Bio-layer interferometry (BLI) data were collected on a Pall ForteBio Octet RED96 instrument. Data analysis was performed using ForteBio Data Analysis Software, version 9.0. Standard kinetic buffer (PBS, 0.100 BSA, 0.02% Tween-20, pH 7.2) was used for the assay and for preparing reagents. […] Varying concentrations (0-200 nM) of histidine-tagged human SIRPA (Sino Biological, Beijing, China) were then bound to the captured anti-SIRPA surface (300 s association time, 600 s dissociation time). The resulting BLI signal was obtained as the difference in response from the reference (2.5 μg/mL IgG+0 nM SIRPA) sensor. […] Multi-concentration kinetic analysis was performed using a 1:1 interaction model to extract association and dissociation rate constants (ka and kd, respectively) for each antibody. Binding affinity constants (KD) were calculated from the ratio kd/ka.
# Best-fit traces from the resulting sensorgrams were analyzed to calculate association rate, dissociation rate, and affinity values.
# T3 sequence (P78324 31-370 limits assumed): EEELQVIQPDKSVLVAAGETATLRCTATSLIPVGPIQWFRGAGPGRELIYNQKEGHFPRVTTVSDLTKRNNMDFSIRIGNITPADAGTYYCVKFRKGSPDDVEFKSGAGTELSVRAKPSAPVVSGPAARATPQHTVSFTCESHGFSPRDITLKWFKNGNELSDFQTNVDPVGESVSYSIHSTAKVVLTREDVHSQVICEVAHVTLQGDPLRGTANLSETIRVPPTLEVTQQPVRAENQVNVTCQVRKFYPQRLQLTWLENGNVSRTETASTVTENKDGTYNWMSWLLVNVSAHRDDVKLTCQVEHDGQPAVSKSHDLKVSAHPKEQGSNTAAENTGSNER
# Sequence of human SIRPA W287A (V5-tagged library clone on HEK-293T cells) (P78324 31-504 W287A): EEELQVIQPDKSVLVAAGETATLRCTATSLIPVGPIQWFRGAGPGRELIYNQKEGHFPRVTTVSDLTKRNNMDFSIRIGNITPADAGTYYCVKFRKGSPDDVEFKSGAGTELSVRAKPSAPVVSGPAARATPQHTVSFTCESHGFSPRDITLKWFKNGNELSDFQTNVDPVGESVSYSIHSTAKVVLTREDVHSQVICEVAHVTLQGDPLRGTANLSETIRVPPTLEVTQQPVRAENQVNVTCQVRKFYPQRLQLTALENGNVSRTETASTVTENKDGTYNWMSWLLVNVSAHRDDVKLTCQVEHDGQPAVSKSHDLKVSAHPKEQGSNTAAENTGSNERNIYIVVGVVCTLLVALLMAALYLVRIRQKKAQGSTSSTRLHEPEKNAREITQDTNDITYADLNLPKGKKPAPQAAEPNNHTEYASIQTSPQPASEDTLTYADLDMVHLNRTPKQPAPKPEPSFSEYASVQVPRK
# Sequence of human SIRPA R295A (V5-tagged library clone on HEK-293T cells) (P78324 31-504 R295A): as the sequence (P78324 31-504 W287A) above, with A257W, R265A counted along it
# Sequence of human SIRPA Q284A (V5-tagged library clone on HEK-293T cells) (P78324 31-504 Q284A): as the sequence (P78324 31-504 W287A) above, with Q254A, A257W counted along it
# Sequence of human SIRPA E297A (V5-tagged library clone on HEK-293T cells) (P78324 31-504 E297A): as the sequence (P78324 31-504 W287A) above, with A257W, E267A counted along it
# Sequence of human SIRPA W315A (V5-tagged library clone on HEK-293T cells) (P78324 31-504 W315A): as the sequence (P78324 31-504 W287A) above, with A257W, W285A counted along it
# Sequence of human SIRPA Q281A (V5-tagged library clone on HEK-293T cells) (P78324 31-504 Q281A): as the sequence (P78324 31-504 W287A) above, with Q251A, A257W counted along it
# Sequence of human SIRPA G337A (V5-tagged library clone on HEK-293T cells) (P78324 31-504 G337A): as the sequence (P78324 31-504 W287A) above, with A257W, G307A counted along it
# Sequence of human SIRPA L285A (V5-tagged library clone on HEK-293T cells) (P78324 31-504 L285A): as the sequence (P78324 31-504 W287A) above, with L255A, A257W counted along it
# T2 sequence (P78324 31-504): as the sequence (P78324 31-504 W287A) above, with A257W counted along it
# Sequence of human SIRPA R282A (V5-tagged library clone on HEK-293T cells) (P78324 31-504 R282A): as the sequence (P78324 31-504 W287A) above, with R252A, A257W counted along it
# Sequence of human SIRPA V302A (V5-tagged library clone on HEK-293T cells) (P78324 31-504 V302A): as the sequence (P78324 31-504 W287A) above, with A257W, V272A counted along it
# T1 sequence (P78324 31-370): as the sequence (P78324 31-370 limits assumed) above
Binder,Binding Reactivity (% WT) [1],Binding Reactivity (% WT) [2],Binding Reactivity (% WT) [3],Binding Reactivity (% WT) [4],Binding Reactivity (% WT) [5],Binding Reactivity (% WT) [6],Binding Reactivity (% WT) [7],Binding Reactivity (% WT) [8],Binding Reactivity (% WT) [9],Binding Reactivity (% WT) [10],"IC50 (read off the curve), SIRPA downregulation on primary human macrophages, Dnr. 517 [11]","IC50 (read off the curve), SIRPA downregulation on primary human macrophages, Dnr 409 [12]",EC50 [13],IC50 [14],Kd [15],koff [15],kon [15]
"3F9 Fab (Fab, V domains shown) VH: EVKLVESGGGLVKPGGSLKLSCAASGFTFSSYAMSWVRQTPEKRLEWVATISDYGGSYTYYPDSVKGRFTISRDNAKYTLYLQMSSLRSEDTALYYCARPPYDDYYGGFAYWGQGTLVTVSA VL: DIVLTQSPASLAVSLGQRATISCRASKSVSSSGYSYMHWYQQKPGQPPKLLIYLASNLESGVPARFSGSGSGTDFTLNIHPVEEEDAATYYCQHNRELPCTFGGGTKLEIK",151 % WT,3.8 % WT,3.3 % WT,107 % WT,125 % WT,121 % WT,117 % WT,92.3 % WT,117 % WT,17.9 % WT,,,,,,,
"3F9-22 SELF (antibody, human IgG1, kappa) heavy chain: not shown light chain: DIQLTQSPSSLSASVGDRVTITCRASKSVSSGGYSYMHWYQQKPGKAPKLLIYLASNLESGVPSRFSGSGSGTDFTLTISSVQPEDFATYYCQHNRELPVTFGQGTKLEIKRTVAAPSVFIFPPSDEQLKSGTASVVCLLNNFYPREAKVQWKVDNALQSGNSQESVTEQDSKDSTYSLSSTLTLSKADYEKHKVYACEVTHQGLSSPVTKSFNRGEC",,,,,,,,,,,~0.1 nM,,,,,,
"9C2 Fab (Fab, V domains shown) VH: EFQLQQSGAELVKPGASVKISCKASGYSLTGYNMNWVKQSRGKSLEWIGNINPHYGSSTYNQNFKDKATLTVDKSSSAAYMQFNSLTSEDSAVYYCAREGYDGVFDYWGQGTTLTVSS VL: QIVLSQSPAILSASPGEKVTMTCRASSSVSYMHWYQQKPGSSPKPWIYVTSNLASGVPTRFSGSGSGTSYSLTISRVEAEDAATYYCQQWSSNPRTFGGGTKLEIK",14.1 % WT,4.7 % WT,6.5 % WT,17.9 % WT,2.4 % WT,1.8 % WT,5.3 % WT,4.9 % WT,19 % WT,36.3 % WT,,,,,,,
"mAb 14.70.1 (antibody, human IgG4, V domains shown, also called h3F9 H1/L1; h3F9 IgG4) VH: EVQLLESGGGLVQPGGSLRLSCAASGFTFSSYAMSWVRQAPGKGLEWVSTISDYGGSYTYYADSVKGRFTISRDNSKNTLYLQMNSLRAEDTAVYYCAKPPYDDYYGGFAYWGQGTLVTVSS VL: DIQMTQSPSSLSASVGDRVTITCRASKSVSSSGYSYMHWYQQKPGKAPKLLIYLASNLESGVPSRFSGSGSGTDFTLTISSLQPEDFATYYCQHNRELPCTFGQGTKLEIK",,,,,,,,,,,,~0.2 nM,1.06 nM,3.3 nM,19 nM,0.002 s⁻¹,110000 M⁻¹ s⁻¹
